Data reported in patent US20230405070A1, “PLECTRANTHUS AMBOINICUS EXTRACT FOR USE IN INHIBITING IMMUNE RESPONSES” (Oneness Biotech Co., Ltd., priority 2022, published 2023).

Tested on: M1 macrophages
Assay: Recombinant GCSF / CXCL3 co-administered with M1-polarizing cytokines
Assay type: cell-based, human
Experimental: For detection of M1 and M2 macrophage markers, cultured cells were suspended then blocked by 20 μL/10^4 of FcR Blocking Reagent (Miltenyi Biotec, Cologne, Germany). Antibodies listed in Table 1 and isotype signal for normalization were listed in Table 3 were used at 5 μL per 10^5 cells.
Cell lysates for immunoblotting were prepared using an M-PER mammalian protein extraction kit containing protease and phosphatase inhibitor cocktail (Thermo-Fisher Scientific). Immunoblotting using the indicated antibodies (listed in Table 1) was performed as described previously (Lu et al., J Immunother Cancer, 2020).
Next, experiments were performed to analyze whether the genes altered by ON101 treatment in diabetic wounds could be produced by ADPCs upon ON101 treatment and focused on candidate genes detected in wound tissues in ON101-treated db/db mice (FIGS. 4E-4F). […] To test whether GCSF and CXCL3 might be involved in the marker switch between M1 and M2 macrophages, recombinant GCSF and CXCL3 proteins, with or without their neutralizing antibodies, were co-administrated with M1-polarizing cytokines. […] Both GCSF- and CXCL3-mediated inductions of M2a/c markers were abolished by the corresponding neutralizing antibodies (FIGS. 8G-8H). In addition, both GCSF and CXCL3 treatments activated Stat3 signaling pathways, whereas GCSF activated Akt phosphorylation, which was again abolished by their corresponding antibodies (FIG. 8I).

[1] = recombinant protein with M1-polarizing cytokines, 48 h

In the case of “CXCL3: recombinant CXCL3 protein co-administrated with M1-polarizing cytokines”, the Stat3 signaling (immunoblot) is reported as “activated” and the CD163 expression [1] is reported as “only induced CD163 expression”.

B1: GCSF: recombinant GCSF protein co-administrated with M1-polarizing cytokines (protein, UniProt P09919 31-207, looked up)
Granulocyte …: TPLGPASSLPQSFLLKCLEQVRKIQGDGAALQEKLVSECATYKLCHPEELVLLGHSLGIPWAPLSSCPSQALQLAGCLSQLHSGLFLYQGLLQALEGISPELGPTLDTLQLDVADFATTIWQQMEELGMAPALQPTQGAMPAFASAFQRRAGGVLVASHLQSFLEVSYRVLRHLAQP
In the case of B1, the Akt phosphorylation (immunoblot) is reported as “activated”, the Stat3 signaling (immunoblot) is reported as “activated” and the CD163 expression [1] is reported as “concentration-dependent increase”. The CD206 expression [1] was “concentration-dependent increase”.
